The record followed here is article PMC12802937 (Nucleic Acids Research, 2026).

Positions count from the first letter of the chain named.

Holding throughout (experiment): ITC; Lge1-CT (50–60 μM) injected into Bre1-LR (15 μM); 25°C, 20 mM TRIS (pH 7.5), 200 mM sodium chloride
Details in all cases: both partners purified

The target of one test is T1, Bre1-LR K379E (budding yeast, UniProt Q07457 227-700, K379E).
T1 construct: source: E. coli BL21 Rosetta (DE3), purified (Ni-NTA, heparin, gel filtration)
T1 sequence (looked up): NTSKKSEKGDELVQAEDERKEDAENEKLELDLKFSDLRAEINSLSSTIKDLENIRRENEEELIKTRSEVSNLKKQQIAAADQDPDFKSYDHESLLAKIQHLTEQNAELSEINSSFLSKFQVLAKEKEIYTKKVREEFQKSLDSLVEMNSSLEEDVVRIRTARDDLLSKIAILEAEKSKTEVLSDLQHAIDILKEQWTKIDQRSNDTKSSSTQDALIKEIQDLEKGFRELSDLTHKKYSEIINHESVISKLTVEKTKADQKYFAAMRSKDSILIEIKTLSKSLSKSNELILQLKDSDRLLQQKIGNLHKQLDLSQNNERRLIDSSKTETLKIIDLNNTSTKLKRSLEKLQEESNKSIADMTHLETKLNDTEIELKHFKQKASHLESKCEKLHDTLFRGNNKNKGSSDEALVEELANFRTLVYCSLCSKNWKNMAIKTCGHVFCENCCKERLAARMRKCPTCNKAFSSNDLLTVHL

The next test addresses T2, Bre1-LR K352E (budding yeast, UniProt Q07457 227-700, K352E).
T2 construct: source: E. coli BL21 Rosetta (DE3), purified (Ni-NTA, heparin, gel filtration)
T2 sequence (looked up): T1 sequence (looked up) with K126E, E153K

For a further test, the target named is T3, Bre1-LR V382N (budding yeast, UniProt Q07457 227-700, V382N).
T3 construct: source: E. coli BL21 Rosetta (DE3), purified (Ni-NTA, heparin, gel filtration)
T3 sequence (looked up): T1 sequence (looked up) with E153K, V156N

Another test has as its target T4, Bre1-LR A489N (budding yeast, UniProt Q07457 227-700, A489N).
T4 construct: source: E. coli BL21 Rosetta (DE3), purified (Ni-NTA, heparin, gel filtration)
T4 sequence (looked up): T1 sequence (looked up) with E153K, A263N

B1: Lge1-CT (Lge1 residues 261–332), intein-chitin binding domain (CBD) tag construct (domain or fragment, budding yeast, UniProt Q02796 261-332, looked up)
chain: KNVKKTNNTESECEKAREVFKESDSIDSALEELNLKINSNELELRLLNNQCDKHALNIQLTQEKLDSLLLMQ
notes: Lge1, budding yeast, residues 261-332; residues 268–331 resolved in the electron density; the intein-CBD tag is named on the protein in the pull-down; also called intein-CBD-fused Lge1-CT; intein-CBD-tagged Lge1-CT; source: E. coli BL21 Rosetta (DE3): cleared cell extract on chitin resin (pull-down); purified (chitin, heparin, gel filtration) for ITC and SPR; co-purified with Bre1-LR for the …
As a reminder, the Kd is the concentration at which binding is half-saturated. The low end stands for tighter binding, the high end for weaker binding. In general, stoichiometry N refers to the number of molecules, sites or subunits per partner or assembly. B1: the dissociation constant (Kd) in the test with Bre1-LR K379E was found to be 58.1 ± 19 nM; in the test with Bre1-LR K352E, 176 ± 45 nM; with Bre1-LR V382N, 61.2 ± 14.4 nM; in the test with Bre1-LR A489N it was 154 ± 55 nM. Further, the dH with Bre1-LR K379E was -37.7 ± 1.6 kcal/mol; with Bre1-LR K352E, -22.9 ± 1.3 kcal/mol; with Bre1-LR V382N, -53.1 ± 1.7 kcal/mol; with Bre1-LR A489N it was -52.1 ± 3.6 kcal/mol. Also, the “stoichiometry N” value in the test with Bre1-LR K379E is 0.428 ± 0.008; with Bre1-LR K352E, 0.432 ± 0.011; in the test with Bre1-LR V382N, 0.378 ± 0.005; with Bre1-LR A489N it was 0.375 ± 0.012.
